From patent US20070243583A1 (University of Texas, published 2007) come the findings set out here.

T1: RNase A (UniProt P61823 27-150)
T1 sequence (looked up): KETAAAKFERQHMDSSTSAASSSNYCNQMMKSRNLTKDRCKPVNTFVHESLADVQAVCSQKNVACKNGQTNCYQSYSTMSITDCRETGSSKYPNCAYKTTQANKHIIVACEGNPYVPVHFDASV

B1: DsbC (enzyme, Escherichia coli, UniProt P0AEG6 21-236, looked up)
chain: DDAAIQQTLAKMGIKSSDIQPAPVAGMKTVLTNSGVLYITDDGKHIIQGPMYDVSGTAPVNVTNKMLLKQLNALEKEMIVYKAPQEKHVITVFTDITCGYCHKLHEQMADYNALGITVRYLAFPRQGLDSDAEKEMKAIWCAKDKNKAFDDVMAGKSVAPASCDVDIADHYALGVQLGVSGTPAVVLSNGTLVPGYQPPKEMKEFLDEHQKMTSGK
notes: also called wild-type DsbC
B2: FkpA-DsbA2 (protein)
chain: AEAAKPATAADSKAAFKNDDQKSAYALGASLGRYMENSLKEQEKLGIKLDKDQLIAGVQDAFADKSKLSDQEIEQTLQAFEARVKSSAQAKMEKDAADNEAKGKEYREKFAKEKQYEDGKQYTTLEKPVAGAPQVLEFFSFFCPHCYQFEEVLHISDNVKKKLPEGVKMTKYHVNFMGGDLGKDLTQAWAVAMALGVEDKVTVPLFEGVQKTQTIRSASDIRDVFINAGIKGEEYDAAWNSFVVKSLVAQQEKAAADVQLRGVPAMFVNGKYQLNPQGMDTSNMDVFVQQYADTVKYLSEKKHHHHHH
B3: FkpA-DsbA4 (protein)
chain: AEAAKPATAADSKAAFKNDDQKSAYALGASLGRYMENSLKEQEKLGIKLDKDQLIAGVQDAFADKSKLSDQEIEQTLQAFEARVKSSAQAKMEKDAADNEAKGKEYREKFAKEKEDGKQYTTLEKPVAGAPQVLEFFSFFCPHCYQFEEVLHISDNVKKKLPEGVKMTKYHVNFMGGDLGKDLTQAWAVAMALGVEDKVTVPLFEGVQKTQTIRSASDIRDVFINAGIKGEEYDAAWNSFVVKSLVAQQEKAAADVQLRGVPAMFVNGKYQLNPQGMDTSNMDVFVQQYADTVKYLSEKKHHHHHH
B4: FkpA-DsbA5 (protein)
chain: AEAAKPATAADSKAAFKNDDQKSAYALGASLGRYMENSLKEQEKLGIKLDKDQLIAGVQDAFADKSKLSDQEIEQTLQAFEARVKSSAQAKMEKDAADNEAKGKEYREKFAKEKDGKQYTTLEKPVAGAPQVLEFFSFFCPHCYQFEEVLHISDNVKKKLPEGVKMTKYHVNFMGGDLGKDLTQAWAVAMALGVEDKVTVPLFEGVQKTQTIRSASDIRDVFINAGIKGEEYDAAWNSFVVKSLVAQQEKAAADVQLRGVPAMFVNGKYQLNPQGMDTSNMDVFVQQYADTVKYLSEKKHHHHHH
B5: FkpA-DsbA3 (protein)
chain: AEAAKPATAADSKAAFKNDDQKSAYALGASLGRYMENSLKEQEKLGIKLDKDQLIAGVQDAFADKSKLSDQEIEQTLQAFEARVKSSAQAKMEKDAADNEAKGKEYREKFAKEKYEDGKQYTTLEKPVAGAPQVLEFFSFFCPHCYQFEEVLHISDNVKKKLPEGVKMTKYHVNFMGGDLGKDLTQAWAVAMALGVEDKVTVPLFEGVQKTQTIRSASDIRDVFINAGIKGEEYDAAWNSFVVKSLVAQQEKAAADVQLRGVPAMFVNGKYQLNPQGMDTSNMDVFVQQYADTVKYLSEKKHHHHHH

The target of one series is T1, RNase A. Description: cell-based or functional assay.
In the case of B1, the “RNAse Refolding” value amounted to 0.067 µM/min/µM Enzyme.

The next series deals with the molecule itself. Kind of series: gel filtration FPLC of the purified protein (self-association, homodimer).
On to B1, for which the binding result was “binds”.

A further series addresses insulin.
Test: not given
In turn, B2 gave an Insulin Reduction (*10^3 DA650 nm/min^-2) of 0.45.
Molecule B3 had an Insulin Reduction (*10^3 DA650 nm/min^-2) of 0.55.
Molecule B4 had an Insulin Reduction (*10^3 DA650 nm/min^-2) of 0.38.
On to B1, for which the Insulin Reduction (*10^3 DA650 nm/min^-2) was 5.81.
B5 displayed an Insulin Reduction (*10^3 DA650 nm/min^-2) of 0.43.

Another series has as its target citrate synthase.
Test: not given
B2 returned a Citrate Synthase Inactivation, CS t1/2 of 2.46 min and a Citrate Synthase Inactivation, µ of 0.17 min - 1.
Regarding B3, the Citrate Synthase Inactivation, CS t1/2 was 3.82 min and the Citrate Synthase Inactivation, µ is 0.45 min - 1.
Consider B4, for which the Citrate Synthase Inactivation, CS t1/2 is 2.71 min and the Citrate Synthase Inactivation, µ amounted to 0.26 min - 1.
B1 came in with a Citrate Synthase Inactivation, CS t1/2 of 3.15 min and a Citrate Synthase Inactivation, µ of 0.22 min - 1.
Molecule B5 came in with a Citrate Synthase Inactivation, CS t1/2 of 2.01 min and a Citrate Synthase Inactivation, µ of 0.36 min - 1.
